Patent US20220024981A1 (Novartis, published 2022)
Bridge positions count the residues as written; N and C are the ends. Square brackets hold non-standard residues; d marks the D form. Phe(3,4-Cl2) = N[C@@H](Cc1ccc(Cl)c(Cl)c1)C(=O)O; Phe(4-CF3) = N[C@@H](Cc1ccc(C(F)(F)F)cc1)C(=O)O; Bip = N[C@@H](Cc1ccc(-c2ccccc2)cc1)C(=O)O; Phe(3-F) = N[C@@H](Cc1cccc(F)c1)C(=O)O; NMeF = CN[C@@H](Cc1ccccc1)C(=O)O; NMeE = CN[C@@H](CCC(=O)O)C(=O)O; NMeA = CN[C@@H](C)C(=O)O

B1: Ac*-F-V-S-T-T-B-(N-Me)A-B-(N-Me)A-D-S-P-C*-G-NH2 (peptide)
peptide: FVSTTXAXADSPCG
modifications: not fully specified; N-terminal acetyl (Ac*) joined by a sulfide bond to the side chain of Cys13 (cyclic); 6: L-Bip; 7: L-(N-Me)Ala; 8: L-Bip; 9: L-(N-Me)Ala; C-terminal amide (NH2)
notes: also called 1-8; Ex. No. 1-8
B2: Ac*-F-V-D-T-T-B-(N-Me)A-(3,4-diCl)F-(N-Me)A-E-S-P-C*-G-NH2 (peptide)
peptide: {CH2CO}-FVDTT[Bip][NMeA][Phe(3,4-Cl2)][NMeA]ESPCG-NH2
modifications: thioether N-13
SMILES: CC(C)[C@@H]1NC(=O)[C@H](Cc2ccccc2)NC(=O)CSC[C@@H](C(=O)NCC(N)=O)NC(=O)[C@@H]2CCCN2C(=O)[C@H](CO)NC(=O)[C@H](CCC(=O)O)NC(=O)[C@H](C)N(C)C(=O)[C@H](Cc2ccc(Cl)c(Cl)c2)NC(=O)[C@H](C)N(C)C(=O)[C@H](Cc2ccc(-c3ccccc3)cc2)NC(=O)[C@H]([C@@H](C)O)NC(=O)[C@H]([C@@H](C)O)NC(=O)[C@H](CC(=O)O)NC1=O
notes: also called 1-26; Ex. No. 1-26
B3: Ac*-F-V-D-T-T-B-(N-Me)A-B-(N-Me)A-E-S-P-C*-G-NH2 (peptide)
peptide: {CH2CO}-FVDTT[Bip][NMeA][Bip][NMeA]ESPCG-NH2
modifications: thioether N-13
SMILES: CC(C)[C@@H]1NC(=O)[C@H](Cc2ccccc2)NC(=O)CSC[C@@H](C(=O)NCC(N)=O)NC(=O)[C@@H]2CCCN2C(=O)[C@H](CO)NC(=O)[C@H](CCC(=O)O)NC(=O)[C@H](C)N(C)C(=O)[C@H](Cc2ccc(-c3ccccc3)cc2)NC(=O)[C@H](C)N(C)C(=O)[C@H](Cc2ccc(-c3ccccc3)cc2)NC(=O)[C@H]([C@@H](C)O)NC(=O)[C@H]([C@@H](C)O)NC(=O)[C@H](CC(=O)O)NC1=O
notes: also called 1-10; Ex. No. 1-10
B4: Ac*-F-V-S-T-T-B-(N-Me)A-B-(N-Me)A-D-R-P-C*-G-NH2 (peptide)
peptide: {CH2CO}-FVSTT[Bip][NMeA][Bip][NMeA]DRPCG-NH2
modifications: thioether N-13
notes: also called 1-2; Ex. No. 1-2
B5: Ac*-F-V-P-T-T-B-(N-Me)A-B-(N-Me)A-D-R-P-C*-G-NH2 (peptide)
peptide: {CH2CO}-FVPTT[Bip][NMeA][Bip][NMeA]DRPCG-NH2
modifications: thioether N-13
SMILES: CC(C)[C@@H]1NC(=O)[C@H](Cc2ccccc2)NC(=O)CSC[C@@H](C(=O)NCC(N)=O)NC(=O)[C@@H]2CCCN2C(=O)[C@H](CCCNC(=N)N)NC(=O)[C@H](CC(=O)O)NC(=O)[C@H](C)N(C)C(=O)[C@H](Cc2ccc(-c3ccccc3)cc2)NC(=O)[C@H](C)N(C)C(=O)[C@H](Cc2ccc(-c3ccccc3)cc2)NC(=O)[C@H]([C@@H](C)O)NC(=O)[C@H]([C@@H](C)O)NC(=O)[C@@H]2CCCN2C1=O
notes: also called 1-19; Ex. No. 1-19
B6: Ac*-F-V-S-T-T-B-(N-Me)A-(3,4-diCl)F-(N-Me)A-D-R-P-C*-G-NH2 (peptide)
peptide: {CH2CO}-FVSTT[Bip][NMeA][Phe(3,4-Cl2)][NMeA]DRPCG-NH2
modifications: thioether N-13
SMILES: CC(C)[C@@H]1NC(=O)[C@H](Cc2ccccc2)NC(=O)CSC[C@@H](C(=O)NCC(N)=O)NC(=O)[C@@H]2CCCN2C(=O)[C@H](CCCNC(=N)N)NC(=O)[C@H](CC(=O)O)NC(=O)[C@H](C)N(C)C(=O)[C@H](Cc2ccc(Cl)c(Cl)c2)NC(=O)[C@H](C)N(C)C(=O)[C@H](Cc2ccc(-c3ccccc3)cc2)NC(=O)[C@H]([C@@H](C)O)NC(=O)[C@H]([C@@H](C)O)NC(=O)[C@H](CO)NC1=O
notes: also called 1-14; Ex. No. 1-14
B7: Ac*-F-V-S-T-T-B-(N-Me)A-B-(N-Me)A-P-S-P-C*-G-NH2 (peptide)
peptide: FVSTTXAXAPSPCG
modifications: not fully specified; N-terminal acetyl (Ac*) joined by a sulfide bond to the side chain of Cys13 (cyclic); 6: L-Bip; 7: L-(N-Me)Ala; 8: L-Bip; 9: L-(N-Me)Ala; C-terminal amide (NH2)
notes: also called 1-20; Ex. No. 1-20
B8: Ac*-F-V-S-T-T-(p-CF3)F-(N-Me)A-(p-CF3)F-(N-Me)A-E-R-P-C*-G-NH2 (peptide)
peptide: {CH2CO}-FVSTT[Phe(4-CF3)][NMeA][Phe(4-CF3)][NMeA]ERPCG-NH2
modifications: thioether N-13
SMILES: CC(C)[C@@H]1NC(=O)[C@H](Cc2ccccc2)NC(=O)CSC[C@@H](C(=O)NCC(N)=O)NC(=O)[C@@H]2CCCN2C(=O)[C@H](CCCNC(=N)N)NC(=O)[C@H](CCC(=O)O)NC(=O)[C@H](C)N(C)C(=O)[C@H](Cc2ccc(C(F)(F)F)cc2)NC(=O)[C@H](C)N(C)C(=O)[C@H](Cc2ccc(C(F)(F)F)cc2)NC(=O)[C@H]([C@@H](C)O)NC(=O)[C@H]([C@@H](C)O)NC(=O)[C@H](CO)NC1=O
notes: also called 1-11; Ex. No. 1-11
B9: Ac*-F-V-S-T-T-B-(N-Me)F-B-(N-Me)A-E-S-P-C*-G-NH2 (peptide)
peptide: FVSTTXFXAESPCG
modifications: not fully specified; N-terminal acetyl (Ac*) joined by a sulfide bond to the side chain of Cys13 (cyclic); 6: L-Bip; 7: L-(N-Me)Phe; 8: L-Bip; 9: L-(N-Me)Ala; C-terminal amide (NH2)
notes: also called 1-13; Ex. No. 1-13
B10: Ac*-F-V-S-T-T-B-(N-Me)A-B-(N-Me)A-E-S-P-C*-G-NH2 (peptide)
peptide: FVSTTXAXAESPCG
modifications: not fully specified; N-terminal acetyl (Ac*) joined by a sulfide bond to the side chain of Cys13 (cyclic); 6: L-Bip; 7: L-(N-Me)Ala; 8: L-Bip; 9: L-(N-Me)Ala; C-terminal amide (NH2)
notes: also called 1-25; Ex. No. 1-25
B11: Ac*-F-V-S-T-T-B-(N-Me)A-(3-F)F-(N-Me)A-D-R-P-C*-G-NH2 (peptide)
peptide: {CH2CO}-FVSTT[Bip][NMeA][Phe(3-F)][NMeA]DRPCG-NH2
modifications: thioether N-13
SMILES: CC(C)[C@@H]1NC(=O)[C@H](Cc2ccccc2)NC(=O)CSC[C@@H](C(=O)NCC(N)=O)NC(=O)[C@@H]2CCCN2C(=O)[C@H](CCCNC(=N)N)NC(=O)[C@H](CC(=O)O)NC(=O)[C@H](C)N(C)C(=O)[C@H](Cc2cccc(F)c2)NC(=O)[C@H](C)N(C)C(=O)[C@H](Cc2ccc(-c3ccccc3)cc2)NC(=O)[C@H]([C@@H](C)O)NC(=O)[C@H]([C@@H](C)O)NC(=O)[C@H](CO)NC1=O
notes: also called 1-15; Ex. No. 1-15
B12: Ac*-F-V-S-T-T-S-(N-Me)F-B-(N-Me)A-D-R-P-C*-G-NH2 (peptide)
peptide: FVSTTSFXADRPCG
modifications: not fully specified; N-terminal acetyl (Ac*) joined by a sulfide bond to the side chain of Cys13 (cyclic); 7: L-(N-Me)Phe; 8: L-Bip; 9: L-(N-Me)Ala; C-terminal amide (NH2)
notes: also called 1-9; Ex. No. 1-9
B13: Ac*-F-V-D-T-T-S-(N-Me)A-B-(N-Me)A-K-S-P-C*-G-NH2 (peptide)
peptide: {CH2CO}-FVDTTS[NMeA][Bip][NMeA]KSPCG-NH2
modifications: thioether N-13
SMILES: CC(C)[C@@H]1NC(=O)[C@H](Cc2ccccc2)NC(=O)CSC[C@@H](C(=O)NCC(N)=O)NC(=O)[C@@H]2CCCN2C(=O)[C@H](CO)NC(=O)[C@H](CCCCN)NC(=O)[C@H](C)N(C)C(=O)[C@H](Cc2ccc(-c3ccccc3)cc2)NC(=O)[C@H](C)N(C)C(=O)[C@H](CO)NC(=O)[C@H]([C@@H](C)O)NC(=O)[C@H]([C@@H](C)O)NC(=O)[C@H](CC(=O)O)NC1=O
notes: also called 1-7; Ex. No. 1-7
B14: Ac*-F-V-D-S-T-Y-(N-Me)A-B-(N-Me)A-N-H-P-C*-G-NH2 (peptide)
peptide: {CH2CO}-FVDSTY[NMeA][Bip][NMeA]NHPCG-NH2
modifications: thioether N-13
SMILES: CC(C)[C@@H]1NC(=O)[C@H](Cc2ccccc2)NC(=O)CSC[C@@H](C(=O)NCC(N)=O)NC(=O)[C@@H]2CCCN2C(=O)[C@H](Cc2c[nH]cn2)NC(=O)[C@H](CC(N)=O)NC(=O)[C@H](C)N(C)C(=O)[C@H](Cc2ccc(-c3ccccc3)cc2)NC(=O)[C@H](C)N(C)C(=O)[C@H](Cc2ccc(O)cc2)NC(=O)[C@H]([C@@H](C)O)NC(=O)[C@H](CO)NC(=O)[C@H](CC(=O)O)NC1=O
notes: also called 1-4; Ex. No. 1-4
B15: Ac*-F-V-D-T-T-S-(N-Me)F-B-(N-Me)A-E-S-P-C*-G-NH2 (peptide)
peptide: {CH2CO}-FVDTTS[NMeF][Bip][NMeA]ESPCG-NH2
modifications: thioether N-13
SMILES: CC(C)[C@@H]1NC(=O)[C@H](Cc2ccccc2)NC(=O)CSC[C@@H](C(=O)NCC(N)=O)NC(=O)[C@@H]2CCCN2C(=O)[C@H](CO)NC(=O)[C@H](CCC(=O)O)NC(=O)[C@H](C)N(C)C(=O)[C@H](Cc2ccc(-c3ccccc3)cc2)NC(=O)[C@H](Cc2ccccc2)N(C)C(=O)[C@H](CO)NC(=O)[C@H]([C@@H](C)O)NC(=O)[C@H]([C@@H](C)O)NC(=O)[C@H](CC(=O)O)NC1=O
notes: also called 1-5; Ex. No. 1-5
B16: Ac*-F-V-D-T-T-S-(N-Me)F-B-(N-Me)A-N-S-P-C*-G-NH2 (peptide)
peptide: {CH2CO}-FVDTTS[NMeF][Bip][NMeA]NSPCG-NH2
modifications: thioether N-13
SMILES: CC(C)[C@@H]1NC(=O)[C@H](Cc2ccccc2)NC(=O)CSC[C@@H](C(=O)NCC(N)=O)NC(=O)[C@@H]2CCCN2C(=O)[C@H](CO)NC(=O)[C@H](CC(N)=O)NC(=O)[C@H](C)N(C)C(=O)[C@H](Cc2ccc(-c3ccccc3)cc2)NC(=O)[C@H](Cc2ccccc2)N(C)C(=O)[C@H](CO)NC(=O)[C@H]([C@@H](C)O)NC(=O)[C@H]([C@@H](C)O)NC(=O)[C@H](CC(=O)O)NC1=O
notes: also called 1-3; Ex. No. 1-3
B17: Ac*-F-V-D-T-T-S-(N-Me)F-B-(N-Me)E-N-S-P-C*-G-NH2 (peptide)
peptide: {CH2CO}-FVDTTS[NMeF][Bip][NMeE]NSPCG-NH2
modifications: thioether N-13
SMILES: CC(C)[C@@H]1NC(=O)[C@H](Cc2ccccc2)NC(=O)CSC[C@@H](C(=O)NCC(N)=O)NC(=O)[C@@H]2CCCN2C(=O)[C@H](CO)NC(=O)[C@H](CC(N)=O)NC(=O)[C@H](CCC(=O)O)N(C)C(=O)[C@H](Cc2ccc(-c3ccccc3)cc2)NC(=O)[C@H](Cc2ccccc2)N(C)C(=O)[C@H](CO)NC(=O)[C@H]([C@@H](C)O)NC(=O)[C@H]([C@@H](C)O)NC(=O)[C@H](CC(=O)O)NC1=O
notes: also called 1-1; Ex. No. 1-1
B18: Ac*-F-V-S-T-T-S-(N-Me)F-B-(N-Me)A-E-S-P-C*-G-NH2 (peptide)
peptide: FVSTTSFXAESPCG
modifications: not fully specified; N-terminal acetyl (Ac*) joined by a sulfide bond to the side chain of Cys13 (cyclic); 7: L-(N-Me)Phe; 8: L-Bip; 9: L-(N-Me)Ala; C-terminal amide (NH2)
notes: also called 1-12; Ex. No. 1-12
B19: Ac*-F-V-D-T-T-S-(N-Me)F-(p-CF3)F-(N-Me)A-E-S-P-C*-G-NH2 (peptide)
peptide: {CH2CO}-FVDTTS[NMeF][Phe(4-CF3)][NMeA]ESPCG-NH2
modifications: thioether N-13
SMILES: CC(C)[C@@H]1NC(=O)[C@H](Cc2ccccc2)NC(=O)CSC[C@@H](C(=O)NCC(N)=O)NC(=O)[C@@H]2CCCN2C(=O)[C@H](CO)NC(=O)[C@H](CCC(=O)O)NC(=O)[C@H](C)N(C)C(=O)[C@H](Cc2ccc(C(F)(F)F)cc2)NC(=O)[C@H](Cc2ccccc2)N(C)C(=O)[C@H](CO)NC(=O)[C@H]([C@@H](C)O)NC(=O)[C@H]([C@@H](C)O)NC(=O)[C@H](CC(=O)O)NC1=O
notes: also called 1-6; Ex. No. 1-6

Target: T1, Human PCSK9 Alexa Fluor 647 (human, UniProt Q8NBP7 31-692, limits assumed, Alexa Fluor 647 label (site not stated))
T1 construct: Labelled tracer of the TR-FRET assay, 16 nM stock; also called proprotein convertase subtilisin/kexin type 9
T1 sequence (Q8NBP7 31-692 limits assumed): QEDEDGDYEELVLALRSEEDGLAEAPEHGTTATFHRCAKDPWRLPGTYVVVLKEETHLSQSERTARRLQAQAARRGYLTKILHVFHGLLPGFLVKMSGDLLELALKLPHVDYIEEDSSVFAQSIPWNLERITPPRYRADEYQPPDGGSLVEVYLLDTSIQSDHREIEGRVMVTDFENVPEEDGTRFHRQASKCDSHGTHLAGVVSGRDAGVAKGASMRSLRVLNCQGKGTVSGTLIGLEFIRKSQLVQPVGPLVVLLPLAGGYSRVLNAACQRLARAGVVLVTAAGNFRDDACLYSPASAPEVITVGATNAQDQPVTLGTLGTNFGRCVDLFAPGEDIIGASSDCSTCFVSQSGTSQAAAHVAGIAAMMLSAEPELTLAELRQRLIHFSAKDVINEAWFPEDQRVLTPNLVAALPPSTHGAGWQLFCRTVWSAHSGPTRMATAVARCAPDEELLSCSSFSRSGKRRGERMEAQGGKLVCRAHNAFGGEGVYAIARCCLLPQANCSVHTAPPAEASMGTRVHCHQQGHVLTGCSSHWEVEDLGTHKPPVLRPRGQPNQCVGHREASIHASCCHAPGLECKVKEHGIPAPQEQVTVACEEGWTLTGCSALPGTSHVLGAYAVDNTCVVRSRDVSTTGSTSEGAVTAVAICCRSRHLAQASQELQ
Test: TR-FRET competition: PCSK9-Alexa Fluor 647 vs LDLR ECD-Eu kryptate
Method: A Proxi plate-low volume assay plate was used for the assay. […] Following a 30 minute incubation, 5 uL of 4 nM Human LDLR extracellular domain-Europium Kryptate was added and the mixture was incubated for an additional 2 hours.
The TR-FRET signal was measured on an EnVision or PheraStar instrument with a 60 μs delay, 330 nm excitation and 665 nm emission (FRET), and 330 nm excitation and 615 nm (Europium). The FRET ratio (FRET/Europium) was used for calculations.

Binder	IC50 [nM]	Maximum % inhibition [%]
B1	2.3	58
B2	2.4	84
B3	6	90
B4	1.3	–
B5	2.7	38
B6	1.2	49
B7	8.1	35
B8	3.6	55
B9	7.8	86
B10	2.5	68
B11	12	53
B12	3	35
B13	410	60
B14	4	60
B15	35	95
B16	2.1	55
B17	2.6	65
B18	14	87
B19	12	97
